Columns and labels:
[1] = target: RNA polymerase holoenzyme (alpha2 beta beta' omega sigma70) (Escherichia coli, UniProt P0A7Z4;P0A8V2;P0A8T7;P0A800;P00579 1-329;1-1342;1-1407;1-91;1-613); assay: EMSA; 40-160 nM holoenzyme; single-copy (M) complex; EMSA buffer D (1x): 20 mM Tris-acetate, 10 mM Mg acetate, 50 mM K acetate, 1 mM DTT, pH 7.8; native PAGE in 0.5x TBE running buffer; 37 C for the tac and slyD template reactions, otherwise temperature not stated; details: protein: native; chain copies: 2;1;1;1;1; label: 5'-32P
[2] = target: RNA polymerase core enzyme (alpha2 beta beta' omega) (Escherichia coli, UniProt P0A7Z4;P0A8V2;P0A8T7;P0A800 1-329;1-1342;1-1407;1-91); assay: EMSA; 40-160 nM core; tandem (D) complex; EMSA buffer D (1x): 20 mM Tris-acetate, 10 mM Mg acetate, 50 mM K acetate, 1 mM DTT, pH 7.8; native PAGE in 0.5x TBE running buffer; 37 C for the tac and slyD template reactions, otherwise temperature not stated; details: protein: native; chain copies: 2;1;1;1; label: 5'-32P

## CGCGCCAACAGCGACATCAAATTTGTCGCC (mixed) [short DNA probe (Fig 2E)]
[1]
  binding result: binds
[2]
  binding result: binds

Reference: PMC3080401, “Oligomerization of the E. coli Core RNA Polymerase: Formation of (α2ββ'ω)2–DNA Complexes and Regulation of the Oligomerization by Auxiliary Subunits”
